The series deals with PKR dsRBD (P20) (UniProt P19525 1-184). Description: EMSA; 0.1 mg/mL herring sperm DNA competitor; Hill 2.9; 25 mM Hepes-KOH pH 7.5, 10 mM NaCl, 5% glycerol, 5 mM DTT, 0.1 mM EDTA, 0.1 mg/mL tRNAPhe or herring sperm DNA; room temperature 10 min; 10% native gel, 0.5x TB, 16 C. The settings on record: protein: recombinant; chain copies: 2; label: 5'-32P; tRNA fold, monomer, ~20 bp. A general note: In EMSA bound probe runs differently from free probe, usually more slowly.
Chain of PKR dsRBD (P20) (P19525 1-184): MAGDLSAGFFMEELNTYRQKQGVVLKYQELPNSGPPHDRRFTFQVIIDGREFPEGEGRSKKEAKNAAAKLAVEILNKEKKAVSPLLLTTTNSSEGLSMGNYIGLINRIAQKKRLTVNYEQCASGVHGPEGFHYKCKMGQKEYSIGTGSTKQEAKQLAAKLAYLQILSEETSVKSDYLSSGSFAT

B1: T7 mt-tRNALeu WT (monomer) (structured_RNA)
RNA: UUAAGAUGGCAGAGCCCGGUAAUCGCAUAAAACUUAAAACUUUACAGUCAGAGGUUCAAUUCCUCUUCUUAACACCA
modifications: none (unmodified transcript)
In general, Kd refers to the concentration at which binding is half-saturated. On to B1, for which the dissociation constant (Kd) worked out at 5.1 µM.

The values are drawn from PMC3587421, “Native Tertiary Structure and Nucleoside Modifications Suppress tRNA’s Intrinsic Ability to Activate the Innate Immune Sensor PKR”.
